Laboratory results taken from patent US20200199204A1 (UNITED STATES OF AMERICA AS REPRESENTED BY THE SECRETARY …, published 2020).

Experiments:
Test in all cases: cell-based or functional assay
[1] = biological target: HIV-1 Env of strain TH976.17 (clade AE), on Env-pseudovirus (HIV-1 strain TH976.17)
[2] = biological target: HIV-1 Env of strain CNE3 (clade AE), on Env-pseudovirus (HIV-1 strain CNE3)
HIV-1 Env of MB201 = HIV-1 Env of MB201 (HIV-1)
HIV-1 Env of ZM135.10a = HIV-1 Env of ZM135.10a (HIV-1)
HIV-1 Env of CAP256.PI = HIV-1 Env of CAP256.PI (HIV-1)
HIV-1 Env of RW020.2 = HIV-1 Env of RW020.2 (HIV-1)
HIV-1 Env of 6405.v4.c34 = HIV-1 Env of 6405.v4.c34 (HIV-1)
HIV-1 Env of 191821.E6.1 = HIV-1 Env of 191821.E6.1 (HIV-1)
HIV-1 Env of Q769.d22 = HIV-1 Env of Q769.d22 (HIV-1)
HIV-1 Env of Q168.a2 = HIV-1 Env of Q168.a2 (HIV-1)
HIV-1 Env of 96ZM651.02 = HIV-1 Env of 96ZM651.02 (HIV-1)
HIV-1 Env of ZM109.4 = HIV-1 Env of ZM109.4 (HIV-1)
HIV-1 Env of DU156.12 = HIV-1 Env of DU156.12 (HIV-1)
HIV-1 Env of 6535.3 = HIV-1 Env of 6535.3 (HIV-1)
HIV-1 Env of DU422.01 = HIV-1 Env of DU422.01 (HIV-1)
HIV-1 Env of Q259.d2.17 = HIV-1 Env of Q259.d2.17 (HIV-1)
HIV-1 Env of C1080.c3 = HIV-1 Env of C1080.c3 (HIV-1)
HIV-1 Env of 3016.V5.c36 = HIV-1 Env of 3016.V5.c36 (HIV-1)
HIV-1 Env of CAP45.G3 = HIV-1 Env of CAP45.G3 (HIV-1)
HIV-1 Env of PVO.04 = HIV-1 Env of PVO.04 (HIV-1)
HIV-1 Env of BG505.w6m = HIV-1 Env of BG505.w6m (HIV-1)
HIV-1 Env of CAP210.E8 = HIV-1 Env of CAP210.E8 (HIV-1)
HIV-1 Env of ZM249.1 = HIV-1 Env of ZM249.1 (HIV-1)
HIV-1 Env of Q842.d12 = HIV-1 Env of Q842.d12 (HIV-1)
HIV-1 Env of CAAN.A2 = HIV-1 Env of CAAN.A2 (HIV-1)
HIV-1 Env of THRO.18 = HIV-1 Env of THRO.18 (HIV-1)
HIV-1 Env of TRJO.58 = HIV-1 Env of TRJO.58 (HIV-1)
HIV-1 Env of ZM214.15 = HIV-1 Env of ZM214.15 (HIV-1)
HIV-1 Env of CM244.ec1 = HIV-1 Env of CM244.ec1 (HIV-1)
HIV-1 Env of ZM233.6 = HIV-1 Env of ZM233.6 (HIV-1)
HIV-1 Env of ZM197.7 = HIV-1 Env of ZM197.7 (HIV-1)
HIV-1 Env of WITO.33 = HIV-1 Env of WITO.33 (HIV-1)
HIV-1 Env of Q461.e2 = HIV-1 Env of Q461.e2 (HIV-1)
HIV-1 Env of REJO.67 = HIV-1 Env of REJO.67 (HIV-1)
HIV-1 Env of MB539.2B7 = HIV-1 Env of MB539.2B7 (HIV-1)
HIV-1 Env of Q23.17 = HIV-1 Env of Q23.17 (HIV-1)
HIV-1 Env of TRO.11 = HIV-1 Env of TRO.11 (HIV-1)
HIV-1 Env of KER2018.11 = HIV-1 Env of KER2018.11 (HIV-1)
HIV-1 Env of ZM53.12 = HIV-1 Env of ZM53.12 (HIV-1)
HIV-1 Env of CNE3 = HIV-1 Env of CNE3 (HIV-1)
HIV-1 Env of KER2008.12 = HIV-1 Env of KER2008.12 (HIV-1)
HIV-1 Env of TH976.17 = HIV-1 Env of TH976.17 (HIV-1)
HIV-1 Env of DU172.17 = HIV-1 Env of DU172.17 (HIV-1)
HIV-1 Env of RHPA.7 = HIV-1 Env of RHPA.7 (HIV-1)
HIV-1 Env of AC10.29 = HIV-1 Env of AC10.29 (HIV-1)
HIV-1 Env of UG037.8 = HIV-1 Env of UG037.8 (HIV-1)
HIV-1 Env of 0260.v5.c36 = HIV-1 Env of 0260.v5.c36 (HIV-1)
HIV-1 Env of CAP256.SU = HIV-1 Env of CAP256.SU (HIV-1)
HIV-1 Env of CAP244.D3 = HIV-1 Env of CAP244.D3 (HIV-1)
HIV-1 Env of QH0692.42 = HIV-1 Env of QH0692.42 (HIV-1)
HIV-1 Env of SC422.8 = HIV-1 Env of SC422.8 (HIV-1)

B1: CAP256-VRC26.11 (antibody, V domains shown)
VH: EVQLVESGGGVVPPGKSLTLSCVASRFTFSAFGMHWVRQAPGKGLEWVASISFAGIKKYYADSVKGRFSISRDNSNTLFLQMNGLRGEDTGLYHCVKDMRELECEEWASDYYDFGKPQPCLDRRGVSGISAWWGPGTMVTVSS
VL: QSVLTQPPSVSAAPGQNVTISCSGPPSHIEKNDVSWYQRLPGMAPKMVIYESKRRPLGIPVRFSASRSGSSATLVITGLQTADEADYYCGTWDGRMNFGTGTTVSVLG
For B1, the “IC50, neutralization of Env-pseudovirus (TZM-bl assay)” value (shortened to “IC50, neutralization”) [1] was greater than 50 µg/mL and the “IC50, neutralization” value [2] was greater than 50 µg/mL.

B2: CAP256-VRC26.07 (antibody, V domains shown)
VH: EVQLVESGGGVVQPGRSLRLSCVGSQFSFNRYGMHWVRQAPGKGLEWVAGISFDGTDRYHADNVWGRFTISRDNSKNTLYLQMSSLRAEDTALYYCAKDLREDECEEWWSDYYDFGKKLPCRKSRGVAGVFDKWGQGTMVTVSS
VL: QAVLTQPPSVSAAPGQNVTISCSGSGSNIGNNFVSWYQQRPGTAPKLLIYESNKRPSGIPDRFSGSKSGTSATLAITGLQTGDEAYYYCATWAARLNSARVFGTGTMVTVLG
For B2, the “IC50, neutralization” value [1] was greater than 50 µg/mL and the “IC50, neutralization” value [2] was greater than 50 µg/mL.

B3: CAP256-VRC26.04 (antibody, V domains shown)
VH: EVQLVESGGGVVQPGKSLRLSCAASQFSFNRYGMHWVRQAPGKGLEWVAAISYDGTDKYHADKVWGRFTISRDNSKNTLYLQMNSLRAEDTALYYCAKDLREDECEEWWSDYYDFGKQLPCRKSRGVAGIFDKWGQGTMVIVSS
VL: QPVLTQPPSVSAAPGQKVTISCSGSSSNIGNNFVSWYQQRPGTAPSLLIYETNKRPSGIPDRFSGSKSATSATLAITGLQTGDEADYYCATWAASLTSARVFGTGTKVIVSG
B3 was tested, and the “neutralization IC50” value (HIV-1 Env of MB201) was greater than 50 µg/mL, the “neutralization IC50” value (HIV-1 Env of ZM135.10a) was greater than 50 µg/mL and the “neutralization IC50” value (HIV-1 Env of CAP256.PI) was greater than 50 µg/mL. The “neutralization IC50” value (HIV-1 Env of RW020.2) was greater than 50 µg/mL, the “neutralization IC50” value (HIV-1 Env of 6405.v4.c34) was greater than 50 µg/mL and the “neutralization IC50” value (HIV-1 Env of 191821.E6.1) was greater than 50 µg/mL. For the same binder, the “neutralization IC50” value (HIV-1 Env of Q769.d22) was greater than 50 µg/mL, the “neutralization IC50” value (HIV-1 Env of Q168.a2) was greater than 50 µg/mL and the “neutralization IC50” value (HIV-1 Env of 96ZM651.02) was greater than 50 µg/mL. For the same binder, the “neutralization IC50” value (HIV-1 Env of ZM109.4) was greater than 50 µg/mL, the “neutralization IC50” value (HIV-1 Env of DU156.12) was 10.4 µg/mL and the “neutralization IC50” value (HIV-1 Env of 6535.3) was greater than 50 µg/mL. The “neutralization IC50” value (HIV-1 Env of DU422.01) was 4.17 µg/mL, the “neutralization IC50” value (HIV-1 Env of Q259.d2.17) was 0.025 µg/mL and the “neutralization IC50” value (HIV-1 Env of C1080.c3) was 0.212 µg/mL. The “neutralization IC50” value (HIV-1 Env of 3016.V5.c36) was 0.283 µg/mL, the “neutralization IC50” value (HIV-1 Env of CAP45.G3) was greater than 50 µg/mL and the “neutralization IC50” value (HIV-1 Env of PVO.04) was greater than 50 µg/mL. The “neutralization IC50” value (HIV-1 Env of BG505.w6m) was 8.43 µg/mL, the “neutralization IC50” value (HIV-1 Env of CAP210.E8) was 0.005 µg/mL and the “neutralization IC50” value (HIV-1 Env of ZM249.1) was 11.4 µg/mL. For the same binder, the “neutralization IC50” value (HIV-1 Env of Q842.d12) was greater than 50 µg/mL, the “neutralization IC50” value (HIV-1 Env of CAAN.A2) was greater than 50 µg/mL and the “neutralization IC50” value (HIV-1 Env of THRO.18) was greater than 50 µg/mL. The “neutralization IC50” value (HIV-1 Env of TRJO.58) was greater than 50 µg/mL, the “neutralization IC50” value (HIV-1 Env of ZM214.15) was greater than 50 µg/mL and the “neutralization IC50” value (HIV-1 Env of CM244.ec1) was 0.361 µg/mL. The “neutralization IC50” value (HIV-1 Env of ZM233.6) was 0.06 µg/mL, the “neutralization IC50” value (HIV-1 Env of ZM197.7) was 0.254 µg/mL and the “neutralization IC50” value (HIV-1 Env of WITO.33) was greater than 50 µg/mL. For the same binder, the “neutralization IC50” value (HIV-1 Env of Q461.e2) was greater than 50 µg/mL, the “neutralization IC50” value (HIV-1 Env of REJO.67) was greater than 50 µg/mL and the “neutralization IC50” value (HIV-1 Env of MB539.2B7) was greater than 50 µg/mL. For the same binder, the “neutralization IC50” value (HIV-1 Env of Q23.17) was 23.6 µg/mL, the “neutralization IC50” value (HIV-1 Env of TRO.11) was greater than 50 µg/mL and the “neutralization IC50” value (HIV-1 Env of KER2018.11) was 0.008 µg/mL. The “neutralization IC50” value (HIV-1 Env of ZM53.12) was 0.004 µg/mL, the “neutralization IC50” value (HIV-1 Env of CNE3) was greater than 50 µg/mL and the “neutralization IC50” value (HIV-1 Env of KER2008.12) was greater than 50 µg/mL. The “neutralization IC50” value (HIV-1 Env of TH976.17) was greater than 50 µg/mL, the “neutralization IC50” value (HIV-1 Env of DU172.17) was greater than 50 µg/mL and the “neutralization IC50” value (HIV-1 Env of RHPA.7) was greater than 50 µg/mL. For the same binder, the “neutralization IC50” value (HIV-1 Env of AC10.29) was greater than 50 µg/mL, the “neutralization IC50” value (HIV-1 Env of UG037.8) was greater than 50 µg/mL and the “neutralization IC50” value (HIV-1 Env of 0260.v5.c36) was greater than 50 µg/mL. The “neutralization IC50” value (HIV-1 Env of CAP256.SU) was 0.003 µg/mL, the “neutralization IC50” value (HIV-1 Env of CAP244.D3) was greater than 50 µg/mL and the “neutralization IC50” value (HIV-1 Env of QH0692.42) was greater than 50 µg/mL. The “neutralization IC50” value (HIV-1 Env of SC422.8) was greater than 50 µg/mL.

B4: CAP256-VRC26.12 (antibody, V domains shown)
VH: EVQLVQSGGGVVQPGRSLRLSCAAPYFEFGRYGFHWVRQAPGKGLEWVASISFAGRDYYHSPSVWGRFTISRDNSKNTLYLQMNSLRIEDTALYFCARDLRESECEEWESDYYDFGKKGPCVKPRGVAGGLDLWGQGTMVIVSS
VL: QSVLTQPPSVSTAPGQTVTVSCSGGTSNTGNNFVSWYQHLPGTAPKLLIYENNKRPLGVPDRFSGAKSGTSATLAITGLQTGDEGDYYCATWSGSLNIGTGTKVSVLG
With B4 the “IC50, neutralization” value [1] was greater than 50 µg/mL and the “IC50, neutralization” value [2] was greater than 50 µg/mL.
